The text below walks through data of patent publication US20200140504A1 (GENESEN, published 2020).

The target in assay [1] is T1, MyD88 (myeloid differentiation 88), in THP1 human monocytes (human, UniProt Q99836 1-296).
T1 construct: whole, on cells; Endogenous intracellular protein seen by immunofluorescence; Species follows from the THP1 human cells
In words: confocal immunofluorescence, THP1 cells treated with TIP1-FITC and LPS. On the procedure: (§1) RAW 264.7 cells and THP1 cells were dispensed into 24-well plates to a cell number of 2×10⁵ cells/well, and then grown in an incubator overnight. Subsequently, combined treatment with TIP1 and LPS was performed. After 24 hours, the RAW 264.7 cells and the THP1 cells were fixed with 3.7% formaldehyde (Sigma-Aldrich Co. LLC) for 15 minutes, and immersed into 0.2% Triton X-100 (AMRESCO, Solon, Ohio, USA) for 15 minutes. Then, washing with PBS was performed three times and blocking with 2% BSA solution was performed. […] Subsequently, the cells were stained at room temperature for 15 minutes using 5 μM Hoechst 33258 (Sigma-Aldrich Co.), and the number of the fluorescently stained cells was counted using a confocal laser scanning microscope (LSM-700, Carl Zeiss MicroImaging GmbH). The images were analyzed using Zen 2009 software.
(§2) In addition, in order to identify binding of TIP1 to TLR4, TIP1-FITC was prepared by binding fluorescein isothiocyanate (FITC) to the N-terminus of TIP1. The THP1 cells in Example 1-2 were subjected to treatment with TIP1 (TIP1-FITC) or to combined treatment with LPS and TIP1, and then the number of fluorescently stained cells were counted using immunofluorescent staining and a confocal microscope according to the method described in Examples 2-4, thereby analyzing interactions between the proteins. […]

The target of assay [2] is T2, Toll-like receptor 4 (TLR4), human (human, UniProt O00206 24-839).
T2 construct: whole, on cells; also called hTLR4; human TLR4
Briefly: confocal laser scanning microscopy, THP1 cells treated with TIP1-FITC with or without LPS. On the procedure:
as §1, §2

For assay [3], the target named is T2, Toll-like receptor 4 (TLR4), human. In words: conclusion of Experimental Example 8 (SPR on TIR-domain peptides, data not given; confocal microscopy).

Primed or numbered codes have the meaning given here. Ends that are not written are not given here. FITC′ = fluorescein isothiocyanate

T2 sequence (O00206 24-839): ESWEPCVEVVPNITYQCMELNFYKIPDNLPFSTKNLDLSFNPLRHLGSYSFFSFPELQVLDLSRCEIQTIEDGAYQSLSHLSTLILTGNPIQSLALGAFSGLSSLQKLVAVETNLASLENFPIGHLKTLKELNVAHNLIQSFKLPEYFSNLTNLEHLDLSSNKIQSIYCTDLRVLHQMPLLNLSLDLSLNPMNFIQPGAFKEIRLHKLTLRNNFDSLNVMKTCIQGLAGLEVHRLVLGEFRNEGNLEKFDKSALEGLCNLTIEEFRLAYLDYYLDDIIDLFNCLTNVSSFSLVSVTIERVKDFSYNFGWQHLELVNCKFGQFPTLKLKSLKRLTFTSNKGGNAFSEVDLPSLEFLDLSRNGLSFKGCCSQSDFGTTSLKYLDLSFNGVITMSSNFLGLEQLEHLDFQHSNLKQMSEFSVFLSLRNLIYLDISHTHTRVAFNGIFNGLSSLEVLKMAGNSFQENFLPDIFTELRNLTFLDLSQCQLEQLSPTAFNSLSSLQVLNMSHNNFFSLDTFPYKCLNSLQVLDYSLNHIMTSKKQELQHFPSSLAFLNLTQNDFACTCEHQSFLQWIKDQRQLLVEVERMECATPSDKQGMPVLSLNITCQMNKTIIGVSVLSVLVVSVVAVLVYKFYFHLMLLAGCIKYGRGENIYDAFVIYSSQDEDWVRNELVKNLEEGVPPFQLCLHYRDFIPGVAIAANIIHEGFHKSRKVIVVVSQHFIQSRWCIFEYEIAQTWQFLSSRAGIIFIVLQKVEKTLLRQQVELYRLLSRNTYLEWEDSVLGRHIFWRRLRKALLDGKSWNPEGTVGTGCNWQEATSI
T1 sequence (Q99836 whole entry): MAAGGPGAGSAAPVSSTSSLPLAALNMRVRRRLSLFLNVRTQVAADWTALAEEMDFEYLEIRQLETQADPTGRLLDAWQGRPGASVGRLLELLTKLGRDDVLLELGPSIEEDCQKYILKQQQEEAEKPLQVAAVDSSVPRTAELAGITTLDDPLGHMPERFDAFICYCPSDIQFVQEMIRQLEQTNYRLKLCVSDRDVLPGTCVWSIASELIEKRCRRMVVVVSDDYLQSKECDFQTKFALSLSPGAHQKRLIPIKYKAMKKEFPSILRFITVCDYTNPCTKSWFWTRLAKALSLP

B1: TIP1-FITC (peptide)
peptide: {FITC′}-RQIKIWFQNRRMKWKKSHCRVLLI
notes: used for confocal microscopy; also called TIP1 (TIP1-FITC)
As for B1, the binding result in assay [1] and in assay [2] was “binds” in each case.
With RQIKIWFQNRRMKWKKSHCRVLLI [TIP1 (Toll-like receptor inhibitory peptide 1)], the binding result in assay [3] is on record as “binds”.
